B1: Asp-Leu-His6, Asp-Leu dimodular peptide synthetase from Bacillus subtilis ATCC 21332 surfactin synthetase (srfA-B), His6-tagged (Bacillus subtilis subsp. … (protein)
chain: PNVRLSDVDLLSSAETAALLEERHMTQITEATFAALFEKQAQQTPDHSAVKAGGNLLTYRELDEQANQLAHHLRAQGAGNEDIVAIVMDRSAEVMVSILGVMKAGAAFLPIDPDTPEERIRYSLEDSGAKFAVVNERNMTAIGQYEGIIVSLDDGKWRNESKERPSSISGSRNLAYVIYTSGTTGKPKGVQIEHRNLTNYVSWFSEEAGLTENDKTVLLSSYAFDLGYTSMFPVLLGGGELHIVQKETYTAPDEIAHYIKEHGITYIKLTPSLFHTIVNTASFAKDANFESLRLIVLGGEKIIPTDVIAFRKMYGHTEFINHYGPTEATIGAIAGRVDLYEPDAFAKRPTIGRPIANAGALVLNEALKLVPPGASGQLYITGQGLARGYLNRPQLTAERFVENPYSPGSLMYKTGDVVRRLSDGTLAFIGRADDQVKIRGYRIEPKEIETVMLSLSGIQEAVVLAVSEGGLQELCAYYTSDQDIEKAELRYQLSLTLPSHMIPAFFVQVDAIPLTANGKTDRNALPKPNAAQSGGKALAAPETALEESLCRIWQKTLGIEAIGIDDNFFDLGGHSLKGMMLIANIQAELEKSVPLKALFEQPTVRQLAAYMEASAVSGGHQVLKPADKQDMYPLSSAQKRMYVLNQLDRQTISYNMPSVLLMEGELDISRLRDSLNQLVNRHESLRTSFMEANGEPVQRIIEKAEVDLHVFEAKEDEADQKIKEFIRPFDLNDAPLIRAALLRIEAKKHLLLLDMHHIIADGVSRGIFVKELALLYKGEQLPEPTLHYKDFAVWQNEAEQKERMKEHEAYWMSVLSGELPELDLPLDYARPPVQSFKGDTIRFRTGSETAKAVEKLLAETGTTLHMVLHAVFHVFLSKISGQRDIVIGSVTAGRTNADVQDMPGMFVNTLALRMEAKEQQTFAELLELAKQTNLSALEHQEYPFEDLVNQLDLPRDMSRNPLFNVMVTTENPDKEQLTLQNLSISPYEAHQGTSKFDLTLGGFTDENGIGLQLEYATDLFAKETAEKWSEYVLRLLKAVADNPNQPLSSLLLVTETEKQALLEAWKGKALPVPTDKTVHQLFEETVQRHKDRPAVTYNGQSWTYGELNAKANRLARILMDCGISPDDRVGVLTKPSLEMSAAVLGVLKAGAAFVPIDPDYPDQRIEYILQDSGAKLLLKQEGISVPDSYTGDVILLDGSRTILSLPLDENDEGNPETAVTAENLAYMIYTSGTTGQPKGVMVEHHALVNLCFWHHDAFSMTAEDRSAKYAGFGFDASIWEMFPTWTIGAELHVIDEAIRLDIVRLNDYFETNGVTITFLPTQLAEQFMELENTSLRVLLTGGDKLKRAVKKPYTLVNNYGPTENTVVATSAEIHPEEGSLSIGRAIANTRVYILGEGNQVQPEGVAGELCVAGRGLARGYLNREDETAKRFVADPFVPGERMYRTGDLVKWVNGGIEYIGRIDQQVKVRGYRIELSEIEVQLAQLSEVQDAAVTAVKDKGGNTAIAAYVTPETADIEALKSTLKETLPDYMIPAFWVTLNELPVTANGKVDRKALPEPDIEAGSGEYKAPTTDMEELLAGIWQDVLGMSEVGVTDNFFSLGGDSIKGIQMASRLNQHGWKLEMKDLFQHPTIEELTQYVERAE

Assays:
Assay in all cases: ATP-PPi exchange reaction (amino acid activation)
[1] = tested on: Asp-Phe-His6, hybrid Asp-Phe dipeptide synthetase (Asp module of Bacillus subtilis ATCC 21332 srfA-B, Phe minimal module of Bacillus brevis ATCC 8185 tycA) …; type: biochemical, Bacillus subtilis ATCC 21332 / Bacillus brevis ATCC 8185; settings: 37°C
Description: (§1) Specificity of amino acid activation was determined indirectly by incorporation of labelled ^32PPi into ATP during reverse reaction (Lee, S.G. & Lipmann, F.; Tyrocidine synthetase system; Methods Enzymol. 43, 1975, p.585-602). For this purpose 20 pmol of each enzyme was incubated with 1 mM amino acid, 1 mM ATP, 0,1 mM PPi, 50 mM HEPES, 100 mM NaCl and 10 mM MgCl2 and 2 mCi ^32PPi at 37°C in a total volume of 100 µL. Reactions were quenched after 10 min by adding 500 µL of a solution containing 100 mM NaPPi, 560 mM perchloric acid and 1,2% (w/v) active charcoal. The mixture was centrifuged at 13000 rpm for 1 min. The pellet was washed and resuspended twice with 1 mL H2O.
(§2) Incorporation of labelled ATP (adsorbed to the charcoal) was detected by measuring radioactivity of the precipitate. […] KM values for Asp and ATP were determined to be 3,5 mM and 0,9 mM respectively. KM values for Leu and ATP were detected to be 0,3 mM and 0,6 mM, respectively.
(§3) The KM value for Phe was determined to be about 50 µM.

[2] = tested on: Asp-Phe-TE-His6, hybrid Asp-Phe dipeptide synthetase with integrated srfA-C thiolation and TE domain, His6-tagged; type: biochemical, Bacillus subtilis ATCC 21332 / Bacillus brevis ATCC 8185; settings: 37°C
Description: as §1, §2, §3

[3] = substrate: CC(C)C[C@H](N)C(=O)O; type: biochemical, Bacillus subtilis ATCC 21332; settings: other: ATP-PPi exchange, 37°C
Description: as §1, §2

[4] = substrate: N[C@@H](CC(=O)O)C(=O)O; type: biochemical, Bacillus subtilis ATCC 21332; settings: other: ATP-PPi exchange, 37°C
Description: as §1, §2

[5] = substrate: Nc1ncnc2c1ncn2[C@@H]1O[C@H](COP(=O)(O)OP(=O)(O)OP(=O)(O)O)[C@@H](O)[C@H]1O; type: biochemical, Bacillus subtilis ATCC 21332; settings: other: ATP-PPi exchange, 37°C
Description: as §1, §2

Row | Molecule | Km [1] [µM] | Km [2] [µM] | Km [3] [µM] | Km [4] [µM] | Km ([5]; ATP value paired with Asp (Asp activation)) [µM] | Km ([5]; ATP value paired with Leu (Leu activation)) [µM]
1 | N[C@@H](Cc1ccccc1)C(=O)O [Phe, L-phenylalanine] | ~50 | ~50 | – | – | – | –
2 | B1 | – | – | 300 | 3500 | 900 | 600

From patent EP1096011A1, “Microbiological production method for alpha-l-aspartyl-l-phenylalanine” (Holland Sweetener Company V.o.F., priority 1999, dated 2001)
